From patent publication US5141947A, “Fibrinolysis-enhancing agents” (Mitsubishi Kasei Corporation, priority 1984, dated 1992)

Test system: thrombus in carotid artery of rabbit
Experiment: in vivo thrombolysis by t-PA, rabbit carotid artery thrombus (Example 4)
Conditions: for Thrombus Protein: 2 h infusion, femoral vein, n=4, saline control 1.97 ± 0.38
Protocol: The carotid artery of a rabbit was exposed from the surrounding tissue under anesthesia by pentobarbital. The exposed artery was surrounded with absorbent cotton soaked with glacial acetic acid and allowed to stay for 3 hours to form thrombus by the damage done to the endorthelium. The thus formed thrombus was tested for dissolution. Immediately after removing out the cotton, physiological saline in which the substance to be tested had been dissolved was injected through the femoral vein. The infusion was continued over 2 hours. After the infusion, the arterial segment wherein the thrombus had been formed was cut out and the thrombus mass was removed out under a microscope. The thrombus was dissolved in alkali and the protein was quantitatively measured by phenol method.

B1: t-PA: single or double chain tissue plasminogen activator (t-PA) (protein, UniProt P00750 36-562, looked up)
Tissue-type plasminogen …: SYQVICRDEKTQMIYQQHQSWLRPVLRSNRVEYCWCNSGRAQCHSVPVKSCSEPRCFNGGTCQQALYFSDFVCQCPEGFAGKCCEIDTRATCYEDQGISYRGTWSTAESGAECTNWNSSALAQKPYSGRRPDAIRLGLGNHNYCRNPDRDSKPWCYVFKAGKYSSEFCSTPACSEGNSDCYFGNGSAYRGTHSLTESGASCLPWNSMILIGKVYTAQNPSAQALGLGKHNYCRNPDGDAKPWCHVLKNRRLTWEYCDVPSCSTCGLRQYSQPQFRIKGGLFADIASHPWQAAIFAKHRRSPGERFLCGGILISSCWILSAAHCFQERFPPHHLTVILGRTYRVVPGEEEQKFEVEKYIVHKEFDDDTYDNDIALLQLKSDSSRCAQESSVVRTVCLPPADLQLPDWTECELSGYGKHEALSPFYSERLKEAHVRLYPSSRCTSQHLLNRTVTDNMLCAGDTRSGGPQANLHDACQGDSGGPLVCLNDGRMTLVGIISWGLGCGQKDVPGVYTKVTNYLDWIRDNMRP
t-PA 0.48 mg/kg alone
  thrombolytic effect: no thrombolytic effect
  Thrombus Protein: 2.45 ± 0.81 mg
t-PA 0.96 mg/kg alone
  Thrombus Protein: 0.40 ± 0.16 mg
